Laboratory results published in patent publication US20240239878A1 (SHANGHAI QILU PHARMACEUTICAL RESEARCH AND DEVELOPMENT CENTRE, published 2024).
Residue numbers refer to the chain shown, from its start. Like-named read-outs stand apart in the source and are kept apart here.

T1: human DLL3 on SHP-77 cells (human, UniProt Q9NYJ7 27-618)
T1 construct: also called DLL3-expressing cells (SHP-77)
T1 sequence: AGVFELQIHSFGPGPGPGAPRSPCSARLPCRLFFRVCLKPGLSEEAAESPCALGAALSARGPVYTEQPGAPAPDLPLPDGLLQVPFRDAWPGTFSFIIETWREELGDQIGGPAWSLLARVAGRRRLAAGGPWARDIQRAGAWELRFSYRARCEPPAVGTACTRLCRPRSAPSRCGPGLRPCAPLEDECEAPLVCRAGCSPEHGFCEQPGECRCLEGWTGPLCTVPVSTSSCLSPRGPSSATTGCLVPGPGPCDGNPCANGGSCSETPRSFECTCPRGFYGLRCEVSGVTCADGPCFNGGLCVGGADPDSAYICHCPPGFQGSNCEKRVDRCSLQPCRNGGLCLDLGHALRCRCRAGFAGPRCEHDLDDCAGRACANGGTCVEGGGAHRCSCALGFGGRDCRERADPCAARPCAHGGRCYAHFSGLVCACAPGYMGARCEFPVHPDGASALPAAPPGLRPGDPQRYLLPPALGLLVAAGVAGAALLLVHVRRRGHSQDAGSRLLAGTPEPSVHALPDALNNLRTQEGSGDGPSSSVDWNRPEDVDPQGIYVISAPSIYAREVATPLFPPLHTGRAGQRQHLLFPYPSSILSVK

T2: Cynomolgus monkey DLL3 on HEK293 cells (HEK293-cyno DLL3) (Cynomolgus monkey, UniProt Q9NYJ7 27-618 (human entry))
T2 chain: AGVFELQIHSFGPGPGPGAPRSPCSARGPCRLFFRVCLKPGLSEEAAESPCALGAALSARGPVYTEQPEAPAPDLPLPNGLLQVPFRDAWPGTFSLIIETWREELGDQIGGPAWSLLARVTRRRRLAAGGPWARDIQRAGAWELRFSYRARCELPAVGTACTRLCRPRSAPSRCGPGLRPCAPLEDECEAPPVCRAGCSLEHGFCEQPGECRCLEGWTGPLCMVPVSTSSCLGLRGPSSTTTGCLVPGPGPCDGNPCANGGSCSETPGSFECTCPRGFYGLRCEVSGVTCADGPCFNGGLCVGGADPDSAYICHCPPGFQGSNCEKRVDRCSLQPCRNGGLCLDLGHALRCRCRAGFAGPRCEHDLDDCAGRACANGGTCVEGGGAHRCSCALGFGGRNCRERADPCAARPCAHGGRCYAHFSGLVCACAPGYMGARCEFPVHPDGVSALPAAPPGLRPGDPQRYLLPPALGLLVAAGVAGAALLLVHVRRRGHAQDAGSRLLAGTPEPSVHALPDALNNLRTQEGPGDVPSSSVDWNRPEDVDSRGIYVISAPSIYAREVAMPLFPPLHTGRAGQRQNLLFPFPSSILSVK

B1: 39E2D11-2 mouse hybridoma-derived anti-DLL3 chimeric antibody (antibody, V domains shown)
VH: QVQLKQSGPGLVQPSQSLSITCTVSGFSLTSYGVHWVRQSPGKGLEWLGVIWSGGSTDYNAAFISRLSISKDNPKSQVFFKMNSLQADDTAIYYCARENYYGNSLWFFDVWGTGTTVTVSS
VL: DIVLTQSPATLSVTPGDSVSLSCRASQSINNNLHWYQQKSHESPRLLIKYVSQSISGIPSRFSGSGSGTDFTLTINSVETEDFGMYFCQQTNSWPLTFGAGTKLELK
B2: 40G3D1 mouse hybridoma-derived anti-DLL3 chimeric antibody (antibody, V domains shown)
VH: QVQLQQSGAELVKPGASVKISCKASGYAFSSQWMNWVKQRPGKGLEWIGQIYPGNGDTNYNGKFKGKATLTADKSSSTAYIQLSSLTSEDSAVYFCARWFAYWGQGTLVTVSA
VL: B1 VL with A9V, I29V, N30R, T74S, M85V, T91S
B3: hDLL3-276 camelid-derived humanized anti-DLL3 antibody (antibody, V domains shown)
VH: QVQLVESGGGVVQPGGSLRLSCAASGSTASTTYMGWFRQAPGKGREGVAIIYTARDNPWYADSVKGRFTISRDNSKNTLYLQMNSLRAEDTAVYYCAATLANPTRTAWGQGTLVTVSS
B4: 47E12D12-1 mouse hybridoma-derived anti-DLL3 chimeric antibody (antibody, V domains shown)
VH: EVQLVESGGGLVKPGGSLKLSCAASGFTFSDYGMHWVRQAPEKGLEWVAYISSGSSTIYYADTVKGRFTISRDNAKNTLFLQMTSLRSEDTAMYYCARNSRGFAYWGQGTLVTVSA
VL: DIVLTQSPAIMSASPGEKVTMTCSASSSVSYMYWYQQKPGSSPRLLIYDTSNLASGVPVRFSGSGSGTSYSLTISRMEAEDAATYYCQQWSSYPRTFGGGTKLEIK
B5: 47E12D12-2 mouse hybridoma-derived anti-DLL3 chimeric antibody (antibody, V domains shown)
VH: B4 VH
VL: DIVLIQSPTIMSASPGEKVTMTCSASSSVSSMHWYQQKSGTSPKRWIYDTSKLASGVPARFSGSGSGTSYSLTISTMEAEDAATYYCQQWNSYHLTFGAGTKLELK
B6: hDLL3-12-1 camelid-derived humanized anti-DLL3 antibody (antibody, V domains shown)
VH: QVQLVESGGGVVQPGRSLRLSCAASGFAFSSYDMHWVRQAPGKGLEWVSSISRDGRGPRYADSVKGRFTISRDNSKNTLYLQMNSLRAEDTAVYYCSKGYPIMGGTTQGTLVTVSS
B7: hDLL3-12-2 camelid-derived humanized anti-DLL3 antibody (antibody, V domains shown)
VH: B6 VH with G44D, L45F
B8: H1-39E2D11 mouse hybridoma-derived humanized anti-DLL3 antibody (antibody, V domains shown)
VH: QVQLVQSGAEVKKPGASVKVSCKASGYTFISYWITWVRQAPGQGLEWMGDIYPGSGSTTNYNEKFKSRVTMTRDTSTSTVYMELSSLRSEDTAVYYCARETTVGGAYAMDYWGQGTLVTVSS
VL: EIVLTQSPATLSLSPGERATLSCRASQSINNNLHWYQQKPGQAPRLLIYYVSQSISGIPARFSGSGSGTDFTLTISSLEPEDFAVYYCQQTNSWPLTFGGGTKLEIK

Experiments:
[1] = target: T1, human DLL3 on SHP-77 cells; experiment: flow cytometry, SHP-77 cells
Protocol: SHP-77 and HEK293-cyno DLL3 cells were cultured. The culture medium for SHP-77 cells were RPMI1640+10% FBS, and the culture medium for HEK293 cyno DLL3 cells was DMEM+10% FBS+200 μg/ml Hygromycin. The cells were cultured in a T75 cell culture flask at a 37° C. 5% CO₂ incubator. When using cells, they are washed with sterile DPBS, digested with 0.25% trypsin EDTA for about 5 minutes, and then stopped with a complete medium.
(§1) The digested cells were centrifuged at 1000 rpm for 5 min at room temperature. The supernatant was discarded and the cells were resuspended in 100 μL of 1% BSA (in PBS). The cells were counted and adjusted to a cell density of 1E6/m. The dilute cells were seeded in a 96-well round-bottom culture plate (corning 3799), and centrifuged at 1500 rpm for 5 min at 4° C. The supernatant was discarded and the cells were stored at 4° C. until use. Antibody samples to be tested were diluted with 1% BSA (in PBS) at a starting concentration of 100 nM, downwards by a 10-fold gradient for 7 concentrations. The cells were resuspended with the diluted antibody at 100 μL/well and incubated for 1 hour at 4° C. The cells were centrifuged at 1500 rpm for 5 minutes at 4° C. and the supernatant was discarded. The cells were resuspended and washed with 160 μL of 1% BSA (in PBS), centrifuged at 1500 rpm for 5 minutes at 4° C. The supernatant was discarded. The secondary antibody (goat anti human IgG Fc PE) was diluted 1:200 with 1% BSA (in PBS) according to the manufacturer's instructions and the cells were resuspended with the diluted secondary antibody. 100 µL/well, and incubated for 0.5 h at 4° C. The cells were centrifuged at 1500 rpm for 5 minutes at 4° C. and the supernatant was discarded. The cells were resuspended and washed with 160 μL of 1% BSA (in PBS), centrifuged at 1500 rpm for 5 minutes at 4° C. The supernatant was discarded. The cells were resuspended in 100 μL of 1% BSA (in PBS), and filtered across a 300 mesh gauze. The mean fluorescence intensity of the PE channels was measured by flow cytometry.
(§2) The analyzed mean fluorescence intensity was imported into Graphpad to analyze the median-binding concentration (hereinafter referred to as EC50) of antibody and cell and the top mean fluorescence intensity (Top MFI).

[2] = target: T2, Cynomolgus monkey DLL3 on HEK293 cells …; experiment: flow cytometry, HEK293-cyno DLL3 cells
Protocol: (§3) SHP-77 and HEK293-cyno DLL3 cells were cultured. The culture medium for SHP-77 cells were RPMI1640+10% FBS, and the culture medium for HEK293 cyno DLL3 cells were DMEM+10% FBS+200 μg/ml Hygromycin. The cells were cultured in a T75 cell culture flask at a 37° C. 5% CO₂ incubator. When using cells, they are washed with sterile DPBS, digested with 0.25% trypsin EDTA for about 5 minutes, and then stopped with a complete medium.
as §1, with “antibody,” for “antibody.”, “μL/well,” for “µL/well,”
as §2

[3] = target: T1, human DLL3 on SHP-77 cells; experiment: flow cytometry, SHP-77 cells; remark: listed apart in the source
Protocol: as §3
as §1, with “antibody,” for “antibody.”, “μL/well,” for “µL/well,”
as §2

[4] = target: T1, human DLL3 on SHP-77 cells; experiment: flow cytometry, SHP-77 cells; remark: listed apart in the source
Protocol: SHP-77 cells were cultured. The culture medium for SHP-77 cells was RPMI1640+10% FBS. The cells were cultured in a T75 cell culture flask at a 37° C. 5% CO₂ incubator. When using cells, they are washed with sterile DPBS, digested with 0.25% trypsin EDTA for about 5 minutes, and then stopped with a complete medium.
as §1, with “plated” for “seeded”, “antibody,” for “antibody.”
as §2

Binder | EC50 [1] [nM] | Top MFI [1] [MFI] | EC50 [2] [nM] | Top MFI [2] [MFI] | EC50 [3] [nM] | Top MFI [3] [MFI] | other results
B1 | 8.63 | 193 | – | – | – | – | –
B2 | – | 369 | – | – | – | – | –
B3 | – | – | 1.01 | 148 | 0.389 | 622 | –
B4 | 1.45 | 178 | – | – | – | – | –
B5 | 69.3 | 455 | – | – | – | – | –
B6 | – | – | 2.36 | 178 | 0.052 | 690 | –
B7 | – | – | 1.35 | 190 | 0.081 | 804 | –
B8 | – | – | – | – | – | – | EC50 [4]: 2.13 nM; Top MFI [4]: 1430 MFI
